Reference: patent publication US20040009534A1 (DYAX, published 2004)
Positions of bridges follow the written chain, without caps; N, C: chain ends. No end group written: not given here.

Assays:
human plasma IgG3 [1] = molecular target: T1, human plasma IgG3 (human, UniProt P01860-1 1-377); experiment: Oregon Green peptide, pH 4.0 - salt
T1 construct: Plasma-derived IgG isoform, bought
Procedure: (§1) Binding studies were performed using human plasma IgG isoforms: IgG1, IgG2, IgG3, and IgG4, obtained from Calbiochem.
(§2) Binding studies were carried out at either pH 4.0, 7.5, or 9.5, with or without salt in the following buffers: […]

human plasma IgG3 [2] = molecular target: T1, human plasma IgG3; experiment: Oregon Green peptide, pH 9.5 + salt (500 mM NaCl)
Procedure: as §1, §2

human plasma IgG3 [3] = molecular target: T1, human plasma IgG3; experiment: Oregon Green peptide, pH 4.0 + salt (500 mM NaCl)
Procedure: as §1, §2

human plasma IgG3 [4] = molecular target: T1, human plasma IgG3; experiment: Oregon Green peptide, pH 7.5 + salt (500 mM NaCl)
Procedure: as §1, §2

human plasma IgG4 [5] = molecular target: T2, human plasma IgG4 (human, UniProt P01861-1 1-327 = IgG part); experiment: Oregon Green peptide, pH 7.5 - salt
T2 construct: Plasma-derived IgG isoform, bought
T2 sequence (P01861 other isoform, or with tags, fused parts or gaps): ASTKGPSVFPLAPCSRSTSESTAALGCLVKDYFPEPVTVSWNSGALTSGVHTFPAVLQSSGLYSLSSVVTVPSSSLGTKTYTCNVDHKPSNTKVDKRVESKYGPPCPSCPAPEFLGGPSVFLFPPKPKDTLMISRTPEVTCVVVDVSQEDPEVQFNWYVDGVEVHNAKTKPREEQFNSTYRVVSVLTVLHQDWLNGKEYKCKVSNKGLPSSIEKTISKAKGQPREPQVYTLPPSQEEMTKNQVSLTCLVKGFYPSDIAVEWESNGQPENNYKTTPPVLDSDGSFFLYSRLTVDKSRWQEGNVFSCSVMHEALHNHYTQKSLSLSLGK
Procedure: as §1, §2

human plasma IgG4 [6] = molecular target: T2, human plasma IgG4; experiment: Oregon Green peptide, pH 4.0 - salt
Procedure: as §1, §2

human plasma IgG1 [7] = molecular target: T3, human plasma IgG1 (human, UniProt P01857-1 1-330 = IgG part); experiment: Oregon Green peptide, pH 4.0 - salt
T3 construct: Plasma-derived IgG isoform, bought
T3 sequence (P01857 other isoform, or with tags, fused parts or gaps): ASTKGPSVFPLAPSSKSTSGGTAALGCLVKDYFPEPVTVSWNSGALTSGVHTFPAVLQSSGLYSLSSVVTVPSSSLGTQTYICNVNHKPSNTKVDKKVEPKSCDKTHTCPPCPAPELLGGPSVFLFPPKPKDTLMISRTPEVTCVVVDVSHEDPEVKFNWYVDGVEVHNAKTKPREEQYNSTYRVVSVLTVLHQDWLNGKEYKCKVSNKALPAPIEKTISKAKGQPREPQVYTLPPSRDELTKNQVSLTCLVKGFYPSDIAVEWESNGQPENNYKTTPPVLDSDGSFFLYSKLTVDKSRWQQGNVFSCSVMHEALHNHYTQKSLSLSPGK
Procedure: as §1, §2

human plasma IgG3 [8] = molecular target: T1, human plasma IgG3; experiment: Oregon Green peptide, TBS pH 7.5
Procedure: as §1, §2

human plasma IgG3 [9] = molecular target: T1, human plasma IgG3; experiment: Oregon Green peptide, pH 9.5 - salt
Procedure: as §1, §2

human plasma IgG2 [10] = molecular target: T4, human plasma IgG2 (human, UniProt P01859-1 1-326 = IgG part); experiment: Oregon Green peptide, pH 9.5 - salt
T4 construct: Plasma-derived IgG isoform, bought
T4 sequence (P01859 other isoform, or with tags, fused parts or gaps): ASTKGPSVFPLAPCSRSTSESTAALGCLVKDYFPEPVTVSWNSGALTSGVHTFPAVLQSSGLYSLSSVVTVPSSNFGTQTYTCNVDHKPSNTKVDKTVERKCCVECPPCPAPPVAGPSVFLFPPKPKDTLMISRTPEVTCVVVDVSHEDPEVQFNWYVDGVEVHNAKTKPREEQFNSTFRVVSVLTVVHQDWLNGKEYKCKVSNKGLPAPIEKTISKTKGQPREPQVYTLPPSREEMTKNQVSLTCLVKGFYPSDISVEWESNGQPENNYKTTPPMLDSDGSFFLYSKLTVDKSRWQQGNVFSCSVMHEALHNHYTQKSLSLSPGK
Procedure: as §1, §2

human plasma IgG1 [11] = molecular target: T3, human plasma IgG1; experiment: Oregon Green peptide, pH 7.5 - salt
Procedure: as §1, §2

human plasma IgG2 [12] = molecular target: T4, human plasma IgG2; experiment: Oregon Green peptide, pH 4.0 - salt
Procedure: as §1, §2

human plasma IgG1 [13] = molecular target: T3, human plasma IgG1; experiment: Oregon Green peptide, pH 4.0 + salt (500 mM NaCl)
Procedure: as §1, §2

human plasma IgG2 [14] = molecular target: T4, human plasma IgG2; experiment: Oregon Green peptide, pH 4.0 + salt (500 mM NaCl)
Procedure: as §1, §2

human plasma IgG2 [15] = molecular target: T4, human plasma IgG2; experiment: Oregon Green peptide, pH 7.5 - salt
Procedure: as §1, §2

pig serum albumin [16] = molecular target: T5, pig serum albumin (Pig, UniProt P08835 25-607); experiment: labeled peptide, KD; 3 mM phosphate, pH 6.2, 0 M NaCl; labeled peptide in solution; 3 mM phosphate, pH 6.2, 0 M NaCl
T5 sequence (P08835 25-607 limits assumed): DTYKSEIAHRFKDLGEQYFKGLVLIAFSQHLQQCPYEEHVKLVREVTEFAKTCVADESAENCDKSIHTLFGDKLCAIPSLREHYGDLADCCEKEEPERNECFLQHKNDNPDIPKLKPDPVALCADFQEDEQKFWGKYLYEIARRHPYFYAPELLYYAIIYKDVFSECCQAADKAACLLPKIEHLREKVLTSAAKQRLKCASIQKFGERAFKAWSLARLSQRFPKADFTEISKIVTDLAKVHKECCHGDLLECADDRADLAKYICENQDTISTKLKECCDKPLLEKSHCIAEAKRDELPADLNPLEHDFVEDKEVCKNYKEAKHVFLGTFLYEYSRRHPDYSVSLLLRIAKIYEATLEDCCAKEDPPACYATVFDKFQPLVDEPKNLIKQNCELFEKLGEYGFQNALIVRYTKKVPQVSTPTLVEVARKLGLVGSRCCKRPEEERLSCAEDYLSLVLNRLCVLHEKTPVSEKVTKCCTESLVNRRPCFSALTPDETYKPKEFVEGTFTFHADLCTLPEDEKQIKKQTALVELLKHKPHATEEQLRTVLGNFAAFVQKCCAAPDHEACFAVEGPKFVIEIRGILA

bovine serum albumin = molecular target: T6, bovine serum albumin (Bovine, UniProt P02769 25-607); experiment: as above
T6 construct: also called BSA
T6 sequence (P02769 25-607 limits assumed): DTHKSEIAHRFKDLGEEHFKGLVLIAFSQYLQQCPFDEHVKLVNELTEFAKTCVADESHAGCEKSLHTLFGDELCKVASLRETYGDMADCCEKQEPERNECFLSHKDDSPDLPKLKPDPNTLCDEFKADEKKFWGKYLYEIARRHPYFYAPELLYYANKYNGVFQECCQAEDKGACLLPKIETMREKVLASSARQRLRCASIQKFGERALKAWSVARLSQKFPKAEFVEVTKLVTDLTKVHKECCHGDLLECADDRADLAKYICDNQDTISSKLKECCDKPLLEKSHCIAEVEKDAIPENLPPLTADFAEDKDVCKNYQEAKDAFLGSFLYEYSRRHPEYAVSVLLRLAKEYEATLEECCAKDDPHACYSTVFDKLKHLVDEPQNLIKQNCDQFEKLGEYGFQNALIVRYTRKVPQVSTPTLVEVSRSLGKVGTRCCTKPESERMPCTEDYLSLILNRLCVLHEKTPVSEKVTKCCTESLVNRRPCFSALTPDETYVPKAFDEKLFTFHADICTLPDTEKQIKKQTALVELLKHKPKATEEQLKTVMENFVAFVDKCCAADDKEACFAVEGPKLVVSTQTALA

Rhesus serum albumin [17] = molecular target: T7, Rhesus serum albumin (Rhesus, UniProt Q28522 17-600); experiment: labeled peptide, KD; 3 mM phosphate, pH 6.2, 0 M NaCl
T7 sequence (Q28522 17-600 limits assumed): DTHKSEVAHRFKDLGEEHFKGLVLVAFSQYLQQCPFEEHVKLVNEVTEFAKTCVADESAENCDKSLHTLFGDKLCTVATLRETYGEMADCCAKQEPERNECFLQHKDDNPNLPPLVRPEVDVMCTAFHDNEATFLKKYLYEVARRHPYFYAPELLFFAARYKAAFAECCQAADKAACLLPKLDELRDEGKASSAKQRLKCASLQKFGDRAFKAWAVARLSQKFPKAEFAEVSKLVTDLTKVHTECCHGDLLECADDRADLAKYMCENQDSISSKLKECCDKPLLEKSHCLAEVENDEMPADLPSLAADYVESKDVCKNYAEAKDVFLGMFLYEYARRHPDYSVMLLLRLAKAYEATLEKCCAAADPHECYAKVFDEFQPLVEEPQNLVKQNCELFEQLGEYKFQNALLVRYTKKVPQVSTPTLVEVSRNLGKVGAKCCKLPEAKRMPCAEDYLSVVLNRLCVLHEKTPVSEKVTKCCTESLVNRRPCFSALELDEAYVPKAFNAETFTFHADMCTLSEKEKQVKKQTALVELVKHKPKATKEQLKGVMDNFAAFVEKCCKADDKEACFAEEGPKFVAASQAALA

rat serum albumin [18] = molecular target: T8, rat serum albumin (Rat, UniProt P02770 25-608); experiment: as above
T8 sequence (P02770 25-608 limits assumed): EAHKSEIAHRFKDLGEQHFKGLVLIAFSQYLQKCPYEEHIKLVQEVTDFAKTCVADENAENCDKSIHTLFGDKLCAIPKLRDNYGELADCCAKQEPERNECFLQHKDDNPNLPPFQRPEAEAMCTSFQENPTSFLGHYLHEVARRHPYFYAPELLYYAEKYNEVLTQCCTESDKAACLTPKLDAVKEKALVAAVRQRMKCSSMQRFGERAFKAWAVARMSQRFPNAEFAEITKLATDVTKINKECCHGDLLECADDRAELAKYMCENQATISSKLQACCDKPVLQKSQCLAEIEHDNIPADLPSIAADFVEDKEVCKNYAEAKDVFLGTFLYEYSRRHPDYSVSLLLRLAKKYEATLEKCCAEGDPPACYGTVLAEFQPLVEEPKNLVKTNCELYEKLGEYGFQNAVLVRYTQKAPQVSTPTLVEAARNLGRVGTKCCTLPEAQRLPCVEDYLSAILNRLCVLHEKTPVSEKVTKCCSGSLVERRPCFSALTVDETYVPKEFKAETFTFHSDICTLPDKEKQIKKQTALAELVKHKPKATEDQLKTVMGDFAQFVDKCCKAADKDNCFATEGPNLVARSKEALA

goat serum albumin [19] = molecular target: T9, goat serum albumin (Goat); experiment: as above
T9 construct: also called GSA
T9 sequence (P85295 whole entry, looked up): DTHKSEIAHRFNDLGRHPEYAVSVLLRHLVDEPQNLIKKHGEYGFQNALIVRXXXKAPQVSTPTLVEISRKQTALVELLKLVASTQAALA

human serum albumin [20] = molecular target: T10, human serum albumin (human, UniProt P02768 25-609); experiment: as above
T10 construct: also called HSA
T10 sequence (P02768 25-609): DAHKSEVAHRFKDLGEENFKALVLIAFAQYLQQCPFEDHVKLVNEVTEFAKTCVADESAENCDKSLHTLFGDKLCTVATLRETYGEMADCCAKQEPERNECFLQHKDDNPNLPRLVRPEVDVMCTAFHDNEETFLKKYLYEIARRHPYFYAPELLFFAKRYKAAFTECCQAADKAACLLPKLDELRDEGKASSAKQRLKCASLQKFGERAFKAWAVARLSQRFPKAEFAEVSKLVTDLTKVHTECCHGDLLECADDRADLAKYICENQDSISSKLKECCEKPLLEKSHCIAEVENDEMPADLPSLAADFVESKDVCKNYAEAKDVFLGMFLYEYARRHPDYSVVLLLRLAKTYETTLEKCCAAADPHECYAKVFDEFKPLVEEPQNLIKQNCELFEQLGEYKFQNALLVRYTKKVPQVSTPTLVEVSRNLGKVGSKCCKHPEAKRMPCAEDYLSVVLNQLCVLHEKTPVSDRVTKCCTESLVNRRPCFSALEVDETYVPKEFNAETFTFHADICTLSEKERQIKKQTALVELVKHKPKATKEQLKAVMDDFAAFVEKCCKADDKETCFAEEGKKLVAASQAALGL

Rhesus serum albumin [21] = molecular target: T7, Rhesus serum albumin; experiment: labeled peptide, KD; PBS, pH 7.4, 0.14 M NaCl
rat serum albumin [22] = molecular target: T8, rat serum albumin; experiment: labeled peptide, KD; PBS, pH 7.4, 0.14 M NaCl
goat serum albumin [23] = molecular target: T9, goat serum albumin; experiment: labeled peptide, KD; PBS, pH 7.4, 0.14 M NaCl
human serum albumin [24] = molecular target: T10, human serum albumin; experiment: labeled peptide, KD; PBS, pH 7.4, 0.14 M NaCl
pig serum albumin [25] = molecular target: T5, pig serum albumin; experiment: labeled peptide, KD; 3 mM phosphate, pH 6.2, 0 M NaCl
rabbit serum albumin = rabbit serum albumin (Rabbit, UniProt P49065 25-608); experiment: as above
rabbit serum albumin, sequence (P49065 25-608 limits assumed): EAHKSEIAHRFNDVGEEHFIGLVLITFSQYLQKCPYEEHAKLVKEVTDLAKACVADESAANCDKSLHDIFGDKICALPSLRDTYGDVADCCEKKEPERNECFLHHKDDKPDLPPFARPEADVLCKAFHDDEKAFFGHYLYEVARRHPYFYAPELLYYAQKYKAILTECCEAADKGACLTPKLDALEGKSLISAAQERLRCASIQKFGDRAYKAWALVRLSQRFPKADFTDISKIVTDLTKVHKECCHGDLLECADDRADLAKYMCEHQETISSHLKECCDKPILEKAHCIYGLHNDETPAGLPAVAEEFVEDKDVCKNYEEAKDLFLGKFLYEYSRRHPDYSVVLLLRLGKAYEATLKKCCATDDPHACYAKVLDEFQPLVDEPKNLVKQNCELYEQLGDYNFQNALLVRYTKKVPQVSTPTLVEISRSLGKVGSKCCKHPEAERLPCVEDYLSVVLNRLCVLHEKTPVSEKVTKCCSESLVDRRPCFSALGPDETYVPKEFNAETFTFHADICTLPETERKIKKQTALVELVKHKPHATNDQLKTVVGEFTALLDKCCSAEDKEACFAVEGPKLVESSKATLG

human plasma IgG2 [26] = molecular target: T4, human plasma IgG2; experiment: Oregon Green peptide, pH 7.5 + salt (500 mM NaCl); pH 7.5 + salt
Procedure: as §1, §2

T1 sequence (P01860 other isoform, or with tags, fused parts or gaps): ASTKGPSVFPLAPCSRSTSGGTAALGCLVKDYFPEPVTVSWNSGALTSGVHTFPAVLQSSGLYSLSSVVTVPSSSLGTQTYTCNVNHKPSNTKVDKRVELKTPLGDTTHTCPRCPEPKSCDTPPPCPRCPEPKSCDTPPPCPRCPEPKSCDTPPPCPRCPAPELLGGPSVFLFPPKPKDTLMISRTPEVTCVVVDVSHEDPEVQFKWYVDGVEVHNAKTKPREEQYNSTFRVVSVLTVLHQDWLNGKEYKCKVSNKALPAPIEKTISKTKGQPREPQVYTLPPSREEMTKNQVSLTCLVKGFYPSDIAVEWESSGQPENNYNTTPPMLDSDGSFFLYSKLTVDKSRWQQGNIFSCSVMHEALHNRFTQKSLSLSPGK

B1: DX392 (peptide)
peptide: AGSYWCKIWDVCPQSPGPEGGGK
modifications: N-terminal acetyl (Ac-); C-terminal amide (-NH2); Oregon Green labeled
notes: Synthesised by BACHEM, Oregon Green labeled, HPLC purified
Binder B1 has a Kd (human plasma IgG3 [1]) of 320 nM, a Kd (human plasma IgG3 [2]) of over 10000 nM and a Kd (human plasma IgG3 [3]) of 600 nM. It also gave a Kd (human plasma IgG3 [4]) of over 10000 nM.

B2: DX395 (peptide)
peptide: AGKYWCNLWGVCPANPGPEGGGK
modifications: N-terminal acetyl (Ac-); C-terminal amide (-NH2); Oregon Green labeled
notes: as for B1
B2 gave a Kd (human plasma IgG3 [1]) of 1000 nM and a Kd (human plasma IgG4 [5]) of over 10000 nM.

B3: DX398 (peptide)
peptide: AGAATCSTSYWYYQWFCTDSPGPEGGGK
modifications: N-terminal acetyl (Ac-); C-terminal amide (-NH2); Oregon Green labeled
notes: as for B1
B3 was tested, and the Kd (human plasma IgG4 [6]) was 1600 nM, the Kd (human plasma IgG3 [1]) was 20 nM and the Kd (human plasma IgG1 [7]) was 2400 nM. For the same binder, the Kd (human plasma IgG3 [2]) was 300 nM, the Kd (human plasma IgG3 [8]) was over 10000 nM and the Kd (human plasma IgG3 [3]) was 40 nM. It also gave a Kd (human plasma IgG3 [9]) of over 10000 nM, a Kd (human plasma IgG2 [10]) of over 10000 nM and a Kd (human plasma IgG4 [5]) of 3500 nM. The Kd (human plasma IgG1 [11]) was 4600 nM and the Kd (human plasma IgG3 [4]) was 300 nM.

B4: DX404 (peptide)
peptide: AGTYWCTFWELPCDPAPGPEGGGK
modifications: N-terminal acetyl (Ac-); C-terminal amide (-NH2); Oregon Green labeled
notes: as for B1
Work on B4 yielded a Kd (human plasma IgG3 [1]) of 10 nM, a Kd (human plasma IgG1 [7]) of 1500 nM and a Kd (human plasma IgG2 [12]) of 1000 nM. The Kd (human plasma IgG3 [3]) was 200 nM, the Kd (human plasma IgG1 [13]) was 2000 nM and the Kd (human plasma IgG2 [14]) was 2000 nM. For the same binder, the Kd (human plasma IgG1 [11]) was 8800 nM and the Kd (human plasma IgG2 [15]) was 8600 nM.

B5: DX413 (peptide)
peptide: AGYWYCWFPDRPECPLYPGPEGGGK
modifications: N-terminal acetyl (Ac-); C-terminal amide (-NH2); Oregon Green labeled
notes: as for B1
B5 showed a Kd (human plasma IgG3 [1]) of 840 nM and a Kd (human plasma IgG3 [3]) of 1100 nM.

B6: DX-321 (peptide)
peptide: AEGTGDRNMCKFSWIRSPAFCARADPE
modifications: not fully specified (bridges); cysteine pairing not given here; also: label not named, exact tested form not given here, immobilised via C-terminal lysine to Sepharose
Binder B6 has a Kd (pig serum albumin [16]) of 21000 nM, a Kd (bovine serum albumin) of 21000 nM and a Kd (Rhesus serum albumin [17]) of 38000 nM. It also gave a Kd (rat serum albumin [18]) of 23000 nM, a Kd (goat serum albumin [19]) of 95000 nM and a Kd (human serum albumin [20]) of 900 nM. The Kd (Rhesus serum albumin [21]) was 82000 nM, the Kd (rat serum albumin [22]) was 117000 nM and the Kd (goat serum albumin [23]) was 83000 nM. For the same binder, the Kd (human serum albumin [24]) was 84000 nM.

B7: DX-236 (peptide)
peptide: AEGTGDFWFCDRIAWYPQHLCEFLDPEGGGK
modifications: disulfide 10-21 (inferred); not fully specified; also: labeled, label not named, coupled via C-terminal lysine to NHS-Sepharose
notes: Cyclic (disulfide) phage-display peptide
B7 was tested, and the Kd (pig serum albumin [25]) was 500 nM, the Kd (rabbit serum albumin) was 500 nM and the Kd (goat serum albumin [19]) was 1600 nM. It also gave a Kd (goat serum albumin [23]) of 23000 nM.

B8: DX389 (peptide)
peptide: AGPHNCDDHYWYCKWFPGPEGGGK
modifications: N-terminal acetyl (Ac-); C-terminal amide (-NH2); Oregon Green labeled
notes: as for B1
Work on B8 yielded a Kd (human plasma IgG3 [1]) of 2500 nM, a Kd (human plasma IgG3 [3]) of 1800 nM and a Kd (human plasma IgG2 [26]) of over 10000 nM. The Kd (human plasma IgG3 [4]) was over 10000 nM.
